Where only a bound is given, the exact number is not on record here.

From patent US20100278752A1 come the findings set out here.

What all share (experiment): cell-based or functional assay
In assay [1] the target is Cathepsin H (Homo sapiens (Human)) (UniProt P09668).
Assay [2] deals with Cathepsin B (Homo sapiens (Human)) (UniProt P07858).
Assay [3] concerns the target Cathepsin X/Z/P (Homo sapiens (Human)) (UniProt Q9UBR2).

Sequence of Sialostatin L (Q8MVB6 20-133, tags or fused parts left off): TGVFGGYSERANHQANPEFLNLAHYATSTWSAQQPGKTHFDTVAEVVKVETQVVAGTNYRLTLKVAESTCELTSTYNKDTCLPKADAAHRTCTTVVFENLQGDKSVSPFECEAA
Sequence of Cathepsin H (Homo sapiens (Human)) (P09668 116-335 limits assumed, form in doubt): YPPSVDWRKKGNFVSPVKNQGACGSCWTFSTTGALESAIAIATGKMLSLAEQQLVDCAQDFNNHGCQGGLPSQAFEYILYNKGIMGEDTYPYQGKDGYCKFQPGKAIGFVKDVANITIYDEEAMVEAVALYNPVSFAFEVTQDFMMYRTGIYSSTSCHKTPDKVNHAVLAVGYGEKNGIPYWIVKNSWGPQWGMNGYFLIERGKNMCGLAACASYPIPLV
Sequence of Cathepsin X/Z/P (Homo sapiens (Human)) (Q9UBR2 62-303 limits assumed, form in doubt): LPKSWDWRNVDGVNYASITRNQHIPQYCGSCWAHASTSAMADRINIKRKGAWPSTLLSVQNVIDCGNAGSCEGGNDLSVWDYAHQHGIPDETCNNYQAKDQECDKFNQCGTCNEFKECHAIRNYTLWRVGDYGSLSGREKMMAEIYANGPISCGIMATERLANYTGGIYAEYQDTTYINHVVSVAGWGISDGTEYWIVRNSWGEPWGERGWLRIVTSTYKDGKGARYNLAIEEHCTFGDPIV

For the substance “Sialostatin L (from UniProt Q8MVB6 20-133)”, the IC50 (inhibitor concentration at which 50% inhibition of enzymatic activity is achieved) in assay [1] and in assay [2] was over 10 µM in each case.
In assay [3], “Sialostatin L2 (from UniProt B7PKZ1 19-132)” came in with an IC50 (inhibitor concentration at which 50% inhibition of enzymatic activity is achieved); 16 nM enzyme of over 10 µM. For the same substance, the IC50 (inhibitor concentration at which 50% inhibition of enzymatic activity is achieved) in assay [1] and in assay [2] was over 10 µM in each case.
